Publication PMC12691639

Target: K62-HA (K62 killer toxin with a C-terminal hemagglutinin tag), expressed by S. cerevisiae (Saccharomyces paradoxus)

K62-HA (K62 killer toxin with a C-terminal hemagglutinin tag), expressed by S. cerevisiae (natural protein)
stoichiometry N: 2
